Laboratory results from the supplement of paper PMC12764529.
± gives the half width of the 95% confidence interval.

Columns and labels:
[1] = folding stability dG unfold from chymotrypsin proteolysis; higher = more stable
Experimental: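 Folding stability of de novo designed mini-proteins (<80 aa, no Cys; designed by TrROS, TrMRF, ProteinMPNN and the joint model) was measured by cDNA display proteolysis with trypsin and chymotrypsin. Each protease was used at 11 concentrations in a threefold dilution series plus a no-protease condition. K50 was inferred by Bayesian fitting of sequencing counts, and dG unfold was derived against a sequence-predicted unfolded-state K50 (Tsuboyama et al. method). Sequences shown include variable-length N-terminal GS-type padding (SAGGSAGG...) inside a display construct carrying a PA tag. Rows were kept only if the AF2 dimer inter-PAE was >15, to exclude likely homo-oligomers.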

[2] = folding stability dG unfold (combined trypsin and chymotrypsin); higher = more stable
Method in brief: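 Mini-proteins designed to be under 80 residues and free of cysteine were carried in a PA-tagged cDNA display construct and digested with trypsin and with chymotrypsin. Each protease was applied at 11 threefold-diluted concentrations, alongside a no-protease condition, before sequencing. K50 came from Bayesian fitting of the sequencing counts, and unfolding free energy was obtained by comparing it with a sequence-predicted unfolded-state K50 and a shared folded-state K50, for each protease separately or for both together. Designs were retained only if their AlphaFold2 dimer inter-PAE exceeded 15.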

| Sequence | folding stability dG unfold [1] | folding stability dG unfold [2] |
| --- | --- | --- |
| SAGGEPGVSAEEAAERLRRELGLPGLERVLEVRLTRAVGDPAGRPPEAESLEVEVEVSPEVRERLAALSAGG [r13_552_JUSTAS] | 0.599 ± 0.051 kcal/mol | 0.00798 ± 0.068 kcal/mol |
| SMSIKRARLRPEEIEAEIAALEAQGLRVKREPLEVTPVEVPLKLPDGTPRRVEVVEVVFRLELTPLDQPPSA [r9_991_JUSTAS] | -0.433 ± 0.48 kcal/mol | < -1 kcal/mol |
| SAGGSAGGWFWVIKAEYPKNGRERSIQIPNEATDEDDVKEEVKELAEDLGAPIKKVEIEWIDPESAGGSAGG [r6_718_TrROS] | -0.474 ± 0.34 kcal/mol | < -1 kcal/mol |
| SAGTVFVAHSDDRPPVAAPETGTVTLPAPDGARVTLRRLPDGTAVVTPDGGESRTLGPGARVEVRLLPASAG [r5_869_TrMRF] | -0.156 ± 0.37 kcal/mol | < -1 kcal/mol |
| SAGGSAGGSAKTVEIPLKDLKPDKDGKYNYDEIQDQIKEKFPPNGIDKVDIDTPRQIWDQFRSAGGSAGGSA [r18_72_TrROS] | 0.157 ± 0.21 kcal/mol | -0.329 ± 0.42 kcal/mol |
| SAGGSAGGSAGGAVGPDVGLPDAPVRFRNPSDDKVFTAYVPAGANFADLAKKYGVEIEPSAGGSAGGSAGGS [r10_202_TrMRF] | 0.673 ± 0.14 kcal/mol | 0.167 ± 0.15 kcal/mol |
| SGGMTPEQMIRHVLREARANNPGKKIEISWNSIQKNFPHPMSPEEIKKELKEEDGIKDVTIQPIPPNDPFSA [r9_738_TrROS] | -0.315 ± 0.29 kcal/mol | < -1 kcal/mol |
| SAGGSAGGSAAGFTAPVVQVRTENGKIYIDVKNSSVSLTVPENAEITPLESEVVKITPLPAPSAGGSAGGSA [r18_468_JUSTAS] | 0.542 ± 0.1 kcal/mol | 0.00621 ± 0.22 kcal/mol |
| SAGGSAGGEETLRVTEITDVEKPDNGPRIKFPIEHDGKKKPIDINVPPDDLKPGDTIPLEEILKSAGGSAGG [r6_585_TrROS] | 0.847 ± 0.072 kcal/mol | 0.222 ± 0.15 kcal/mol |
| SSAEEIARRLAEELNLDRVEVRVERLRLEPAEAPEEVRVVRPAPPPPPVTEEERRRRPEERRRRLSEEELSA [r9_724_TrROS_Hall] | -0.262 ± 0.32 kcal/mol | < -1 kcal/mol |
| SAGGSAGGSAGIKKQRNPDGQERETIEIRTKNQPIPITFPPDDNADDLANNFGLPADDIRSAGGSAGGSAGG [r11_1039_TrROS] | 0.682 ± 0.039 kcal/mol | 0.28 ± 0.079 kcal/mol |
| SSTTPYGDKTVVTTTTPVPGAGKELVTTTTYTFTPDPNSASTSTTATTTTTVTPLPEEAPTPEAVALRRASA [r9_363_JUSTAS] | -0.937 ± 0.44 kcal/mol | < -1 kcal/mol |
| SAGGSAMTPQTLTLPDGTQVTVYYDPSTGKYTITTTTTTPTAQGTGPTTTTTKTVDSEEELLAYLSSAGGSA [r15_31_JUSTAS] | 4.37 ± 0.13 kcal/mol | 4.5 ± 0.2 kcal/mol |
| SAGGAPLAERTEPLPDGRTVRRVLEYDPEKRTVRVRTERWAPDGAAEPAEEVLDVPESATSPEFLLASAGGS [r8_461_JUSTAS] | -0.606 ± 0.21 kcal/mol | < -1 kcal/mol |
| SGMTPVSVSRKFTSTFPNGTPVSDPGGLVVLVPEPPPPPYVHLSPEEVEAARAAAAAAGSPLTEADIRASSA [r9_487_JUSTAS] | 0.164 ± 0.21 kcal/mol | -0.642 ± 0.42 kcal/mol |
| SAGGSAGGSAGGSKIEVYKEPNKITIVIHPGNKPLVFTATEPIPIETLIKKAREAFPDASAGGSAGGSAGGS [r4_191_TrMRF] | 0.516 ± 0.12 kcal/mol | -0.0455 ± 0.13 kcal/mol |
| SAGGSMKVEYDESTGVTTITLPDGSTITFPAEDTGLTVEASLEDDTLTITVKDPNNPVPLETRTIPSSSAGG [r13_938_JUSTAS] | 0.935 ± 0.036 kcal/mol | 0.393 ± 0.18 kcal/mol |
| SAGGSAGGSAGGMKITLKVKKPDGTTTTITVDIDESKIEEIKEEIAPKGYEVEEAEIELESAGGSAGGSAGG [r7_159_JUSTAS] | 0.638 ± 0.12 kcal/mol | 0.00742 ± 0.36 kcal/mol |

| Sequence | folding stability dG unfold [1] | folding stability dG unfold [2] |
| --- | --- | --- |
| SAGGSAGGSAGGPPPGDKIEIIVIKFEPRYDPDGEPKNPRIDSIEVITIPADDPDDLLEASAGGSAGGSAGG [r7_439_TrROS] | 0.805 ± 0.079 kcal/mol | 0.348 ± 0.34 kcal/mol |
| SAGGSAGGSADNPQVERTIHDPNGGFKVMINPNDNSIEIWPYKNDKPEPKTFDSPEALDDISAGGSAGGSAG [r3_426_TrROS] | 0.136 ± 0.17 kcal/mol | -0.387 ± 0.29 kcal/mol |
| SAGVKIKWEPIDRDPKNGHVYYSITIKVPKDGKPLDEIPIGMYQFDNDDGKWEPMPEEDIKQQAKDLLNSAG [r5_909_TrROS] | 0.0649 ± 0.34 kcal/mol | -0.415 ± 0.52 kcal/mol |
| SAGGNIEIEIPIPKEDLKDNDFEEAKEYVREYVRMIAREQGLPPGFPIKDIDVQPHPNYYMVKIEIPSAGGS [r16_368_TrROS] | 0.868 ± 0.26 kcal/mol | 0.401 ± 0.16 kcal/mol |
| SAGGSAGGSAGGSEEKPIPIKVKIWKPNPGELVEEKEYLIPSNGSAEEIKKAFPNAEISSAGGSAGGSAGGS [r4_187_TrMRF] | 0.689 ± 0.15 kcal/mol | 0.12 ± 0.3 kcal/mol |
| SAGGSAGGSAGGPELPEDVPVVEVVHLDLPFSPDEPEVVEEAEAKAAALEEGGALAEIRRSAGGSAGGSAGG [r11_519_JUSTAS] | 0.728 ± 0.06 kcal/mol | 0.0364 ± 0.097 kcal/mol |
| SAGMKVVRTRTVWADDSDNPTPLAPEVELVRDAPPTFPLPVTVTTPDGRPYTGTLIALDPDREGLVLGGSAG [r5_735_TrMRF] | 0.254 ± 0.17 kcal/mol | -0.29 ± 0.19 kcal/mol |
| SAGGGSKVIKVEYEKKDGGKVFIDDITDPGDSVEASIFNPKTGVKIPLPFDKLEELEDFIKEFVDKYSAGGS [r16_736_TrMRF] | -0.154 ± 0.32 kcal/mol | < -1 kcal/mol |
| SAGGSAGGSAGMTSTVTEVRPGSDSWTVTVTYSENSSTKTQTLTVPAGPTVRSGLPSVVSSAGGSAGGSAGG [r11_921_JUSTAS] | 0.209 ± 0.15 kcal/mol | -0.435 ± 0.23 kcal/mol |
| SAGGSAGGSAGGMTLTVKDPASDEWTTVDLSPEQLPEVRAAVPEGPVTFELEASDSVIELSAGGSAGGSAGG [r7_188_JUSTAS] | 0.94 ± 0.061 kcal/mol | 0.409 ± 0.059 kcal/mol |
| SAGGMSVEVDWGETTRRLTFYDESGNPVADAEEPVLDPLTGLSTSRGVSLEELARRAGVPVELPERRSAGGS [r16_778_JUSTAS] | 0.764 ± 0.025 kcal/mol | 0.337 ± 0.058 kcal/mol |
| SAGGSAGGSAGSEVEKARNAALEARRAGVEEVTITMPEELKEKVTALAKEEGINLKIESESAGGSAGGSAGG [r11_371_JUSTAS] | 0.0457 ± 0.19 kcal/mol | -0.351 ± 0.36 kcal/mol |
| SAGGKSKTIPIQPGDIRKVRDQLKELPDEGDNVRIHNPDNGKEREMDPDQLDDNVEKNGEPPTIHVRSAGGS [r16_263_TrROS] | -0.528 ± 0.072 kcal/mol | < -1 kcal/mol |
| SAGGSALTIKVKDPEDIKDLEIQVYLPDGRPMLMKIEVQRDEGPPYVKIKAENPGNGKKRKETFPFSAGGSA [r15_1006_TrROS] | 0.0249 ± 0.53 kcal/mol | -0.243 ± 0.62 kcal/mol |
| SAGGSAGPMVKTTEFSAVYTGPGGVSRGPVAVTVEIPPGDPSNPVLTVTLPDGTPRTLAAGEVEAASAGGSA [r15_954_JUSTAS] | -0.672 ± 0.36 kcal/mol | -0.757 ± 0.27 kcal/mol |
| SAGGSAGGSAGGSDPSMSLETFVIPESTSTVTLTDPSGTLRTLTTGRDPLTLTEVLPPRSAGGSAGGSAGGS [r4_162_JUSTAS] | 0.459 ± 0.12 kcal/mol | -0.078 ± 0.17 kcal/mol |
| SAGGSAGGSAGPTITYHPDGRVRIDLHLPNGELLDTGVITPDEAVRLLLETGVRLRTIRPSAGGSAGGSAGG [r11_521_TrMRF] | 0.662 ± 0.11 kcal/mol | 0.166 ± 0.19 kcal/mol |
| SAGGSAGGSAGGSMKTTTLTVKPEELEEVKKKLTPPDKTVTIKSVTKDPKEDLVTLTVESAGGSAGGSAGGS [r10_1030_JUSTAS] | -0.517 ± 0.59 kcal/mol | -0.923 ± 0.65 kcal/mol |
